# Biological target: Class A TC protein XptA2wi (Xenorhabdus nematophilus xwi)
# Test: cell-based or functional assay
substance,measurement,value
TcdB2+TccC3 complex (non fused),"killing/stunting activity against corn earworm larvae, XptA2 held constant at 250 ng/cm^2",7.8 ng/cm^2

# From patent publication US20100041610A1
